According to paper PMC11074019:

Assays:
[1] = target: Transient receptor potential channel ankyrin 1 (TRPA1) (human (endogenous in MDA-MB-231)) (UniProt O75762)
[2] = target: Transient receptor potential channel ankyrin 1 (TRPA1) (human (endogenous in MDA-MB-231)) (UniProt O75762); remark: listed apart in the source

Sequence of UniProt O75762 (O75762 whole entry): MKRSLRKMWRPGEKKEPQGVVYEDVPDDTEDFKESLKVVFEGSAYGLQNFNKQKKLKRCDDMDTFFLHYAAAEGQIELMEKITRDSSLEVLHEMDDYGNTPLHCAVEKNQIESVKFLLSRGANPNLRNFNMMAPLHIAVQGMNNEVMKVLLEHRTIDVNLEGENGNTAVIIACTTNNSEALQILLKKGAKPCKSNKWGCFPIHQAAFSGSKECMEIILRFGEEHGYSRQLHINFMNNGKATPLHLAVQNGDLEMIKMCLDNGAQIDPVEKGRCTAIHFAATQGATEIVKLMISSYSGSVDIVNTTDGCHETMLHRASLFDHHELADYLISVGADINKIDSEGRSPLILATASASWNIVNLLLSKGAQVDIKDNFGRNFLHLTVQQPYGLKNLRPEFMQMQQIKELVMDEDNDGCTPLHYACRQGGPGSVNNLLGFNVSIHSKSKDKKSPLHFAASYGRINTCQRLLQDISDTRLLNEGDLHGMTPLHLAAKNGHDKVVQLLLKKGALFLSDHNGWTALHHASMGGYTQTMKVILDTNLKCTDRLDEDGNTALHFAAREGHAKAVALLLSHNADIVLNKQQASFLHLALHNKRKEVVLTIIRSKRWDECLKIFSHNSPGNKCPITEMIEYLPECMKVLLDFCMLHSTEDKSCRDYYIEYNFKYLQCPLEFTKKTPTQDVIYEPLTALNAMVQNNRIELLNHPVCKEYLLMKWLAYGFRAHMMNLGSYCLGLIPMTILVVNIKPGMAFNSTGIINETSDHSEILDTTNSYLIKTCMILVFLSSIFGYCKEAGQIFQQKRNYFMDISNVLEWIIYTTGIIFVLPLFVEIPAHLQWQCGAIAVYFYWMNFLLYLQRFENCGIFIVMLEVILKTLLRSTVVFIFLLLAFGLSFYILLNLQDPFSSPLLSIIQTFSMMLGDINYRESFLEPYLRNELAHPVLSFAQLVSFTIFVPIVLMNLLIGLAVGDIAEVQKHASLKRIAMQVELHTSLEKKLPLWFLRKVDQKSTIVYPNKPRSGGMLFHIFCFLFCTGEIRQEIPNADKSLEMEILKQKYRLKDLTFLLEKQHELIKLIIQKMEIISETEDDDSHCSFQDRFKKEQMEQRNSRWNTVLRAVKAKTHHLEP

inward conductance (IG TRPA1) in inside-out patches of MDA-MB-231 CTR cells, without vs with NCS-1 [1]: 104 pS
inward conductance (IG TRPA1) in inside-out patches of SH-SY5Y cells, without vs with NCS-1 [1]: 110 pS
outward conductance (OG TRPA1) in inside-out patches of MDA-MB-231 CTR cells, without vs with NCS-1 [1]: 155 pS
outward conductance (OG TRPA1) in inside-out patches of SH-SY5Y cells, without vs with NCS-1 [1]: 169 pS
open probability (Po) of AITC-activated TRPA1 single channels in inside-out patches of MDA-MB-231 CTR cells, with NCS-1 (10 μM) vs without [2]: 0.883
Substance: Recombinant rat NCS-1 (Ca2+-free) (from UniProt P62168 1-190) (natural protein)
